From IntAct's records for PubMed 23892082

B1: TIP41-like protein (Homo sapiens), O75663 (parent)
chain: MMIHGFQSSHRDFCFGPWKLTASKTHIMKSADVEKLADELHMPSLPEMMFGDNVLRIQHGSGFGIEFNATDALRCVNNYQGMLKVACAEEWQESRTEGEHSKEVIKPYDWTYTTDYKGTLLGESLKLKVVPTTDHIDTEKLKAREQIKFFEEVLLFEDELHDHGVSSLSVKIRVMPSSFFLLLRFFLRIDGVLIRMNDTRLYHEADKTYMLREYTSRESKISSLMHVPPSLFTEPNEISQYLPIKEAVCEKLIFPERIDPNPADSQKSTQVE

Variants of: B1
Settings: with pp2aa_rat Ppp2ca

effect of a mutation on the interaction	Variant
disrupting interaction	MMIHGFQSSHRDFCFGPWKLTASKTHIMKSADVEKLADELHMPSLPEMMFGDNVLRIQHGSGFGIEFNATLALRCVNNYQGMLKVACAEEWQESRTEGEHSKEVIKPYDWTYTTDYKGTLLGESLKLKVVPTTDHIDTEKLKAREQIKFFEEVLLFEDELHDHGVSSLSVKIRVMPSSFFLLLRFFLRIDGVLIRMNDTRLYHEADKTYMLREYTSRESKISSLMHVPPSLFTEPNEISQYLPIKEAVCEKLIFPERIDPNPADSQKSTQVE [D71L]
